Reference: article doi:10.1101/2022.08.12.503727

Target: T1, RBP45d (Arabidopsis thaliana, UniProt Q8VXZ9 1-425)
T1 sequence: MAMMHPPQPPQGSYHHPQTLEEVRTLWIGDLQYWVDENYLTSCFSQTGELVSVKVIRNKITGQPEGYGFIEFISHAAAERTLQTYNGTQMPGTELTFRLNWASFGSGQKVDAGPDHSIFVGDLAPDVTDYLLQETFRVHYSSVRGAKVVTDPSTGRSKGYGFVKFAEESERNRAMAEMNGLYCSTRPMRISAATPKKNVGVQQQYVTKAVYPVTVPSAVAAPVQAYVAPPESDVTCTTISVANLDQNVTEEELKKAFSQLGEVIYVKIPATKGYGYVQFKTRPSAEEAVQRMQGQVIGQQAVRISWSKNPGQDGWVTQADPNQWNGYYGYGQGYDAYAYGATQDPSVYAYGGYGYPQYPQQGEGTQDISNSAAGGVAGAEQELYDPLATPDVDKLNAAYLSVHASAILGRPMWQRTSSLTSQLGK
Assay: EMSA

GUUUUGUUCGGUUUUGGUUUAGAUUUUUG (ssRNA) [Cy5-LPD1-IN2]: binds.
